Results from article PMC4778861, “Type One Protein Phosphatase 1 and Its Regulatory Protein Inhibitor 2 Negatively Regulate ABA Signaling” (PLoS Genetics, 2016).

T1: MBP-SnRK2.6 (Arabidopsis thaliana, UniProt Q940H6 1-362)
T1 construct: SNF1-related protein kinase 2.6 (SnRK2.6, OST1), Arabidopsis thaliana, in pMal-c2X; source: E. coli BL21 (DE3), purified (amylose resin); not shown: MBP, N-terminal, kept
T1 sequence (looked up): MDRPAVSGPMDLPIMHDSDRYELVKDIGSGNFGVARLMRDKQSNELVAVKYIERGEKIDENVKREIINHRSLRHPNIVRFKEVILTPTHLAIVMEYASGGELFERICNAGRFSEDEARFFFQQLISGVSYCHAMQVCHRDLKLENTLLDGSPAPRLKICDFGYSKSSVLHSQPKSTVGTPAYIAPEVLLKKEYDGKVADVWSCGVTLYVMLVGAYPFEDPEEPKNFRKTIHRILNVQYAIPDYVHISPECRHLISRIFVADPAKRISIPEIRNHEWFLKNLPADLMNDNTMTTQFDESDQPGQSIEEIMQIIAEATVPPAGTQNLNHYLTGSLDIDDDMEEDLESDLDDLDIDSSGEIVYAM

B1: GST-TOPP1 (enzyme, Arabidopsis thaliana, UniProt P30366 1-318, looked up)
chain: MAEKPAQEQEQKRAMEPAVLDDIIRRLVEFRNTRPGSGKQVHLSEGEIRQLCAVSKEIFLQQPNLLELEAPIKICGDIHGQYSDLLRLFEYGGFPPEANYLFLGDYVDRGKQSLETICLLLAYKIKYPENFFLLRGNHESASINRIYGFYDECKRRFNVRLWKIFTDCFNCLPVAALIDDRILCMHGGISPELKSLDQIRNIARPMDIPESGLVCDLLWSDPSGDVGWGMNDRGVSYTFGADKVAEFLEKHDMDLICRAHQVVEDGYEFFAERQLVTVFSAPNYCGEFDNAGAMMSIDESLMCSFQILKPSEKKSPFL
notes: also called GST-tagged TOPP1; source: E. coli, purified (glutathione-agarose beads); not shown: GST, N-terminal, kept
B2: GST-AtI-2 (natural protein, Arabidopsis thaliana, UniProt Q9LTK0 1-191, looked up)
chain: MTEPKRGRVQWDEANIVEIESNKPVRQKITEPKTPYHPMMDDDGSLSPRGRAFDECVDDMQRAEELRNVLNDAAASSSRNSSQGSGGGGWSSSDEEEEEADPMDQDEEGSGSGKNERFNAHRKAHYDEFRKVKELRSSGSFYEEEEEEDDGAKGSKSETTTNSRHTKGGNKELDATKTVSGTSSSSSPELI
notes: source: E. coli, purified (glutathione-agarose beads); not shown: GST, N-terminal, kept

Target: T1, MBP-SnRK2.6
Experiment: pull-down; GST-TOPP1 or GST-AtI-2 incubated with MBP-SnRK2.6 in amylose resin, 4 hours at 4°C, washed 4 times with 1X PBS; SDS-PAGE, coomassie blue
Conditions: both partners purified

Row | Binder | binding result
1 | B1 | binds
2 | B2 | binds
